Target: the molecule itself
Assay: SAXS; steady state, flow cell; 1.14 mg/mL disassembled Cp185 in disassembly buffer (1.5 M GuHCl, 0.5 M LiCl, 50 mM HEPES pH 7.5, 2 mM DTT); monomer to dimer

B1: full-length hepatitis B virus core protein Cp185 (natural protein)
chain: MDIDPYKEFGATVELLSFLPSDFFPSVRDLLDTASALYREALESPEHCSPHHTALRQAILCWGELMTLATWVGNNLEDPASRDLVVNYVNTNMGLKIRQLLWFHISCLTFGRETVLEYLVSFGVWIRTPPAYRPPNAPILSTLPETTVVRRRDRGRSPRRRTPSPRRRRSQSPRRRRSQSRESQC
  stoichiometry N: 2

From publication PMC7458484 (ACS Nano, 2020)
